Literature values, collected in paper PMC3849016.

Target: VEGFR2 (vascular endothelial growth factor receptor 2) (UniProt P35968)
Details: printed Z = 5-N-(benzylcarboxyamide)-2'-deoxyuridine (BzdU), written here as U at every Z; all other residues are DNA; 5' H2N-C6; not stated for the supplier …

Chain of UniProt P35968 (P35968 whole entry): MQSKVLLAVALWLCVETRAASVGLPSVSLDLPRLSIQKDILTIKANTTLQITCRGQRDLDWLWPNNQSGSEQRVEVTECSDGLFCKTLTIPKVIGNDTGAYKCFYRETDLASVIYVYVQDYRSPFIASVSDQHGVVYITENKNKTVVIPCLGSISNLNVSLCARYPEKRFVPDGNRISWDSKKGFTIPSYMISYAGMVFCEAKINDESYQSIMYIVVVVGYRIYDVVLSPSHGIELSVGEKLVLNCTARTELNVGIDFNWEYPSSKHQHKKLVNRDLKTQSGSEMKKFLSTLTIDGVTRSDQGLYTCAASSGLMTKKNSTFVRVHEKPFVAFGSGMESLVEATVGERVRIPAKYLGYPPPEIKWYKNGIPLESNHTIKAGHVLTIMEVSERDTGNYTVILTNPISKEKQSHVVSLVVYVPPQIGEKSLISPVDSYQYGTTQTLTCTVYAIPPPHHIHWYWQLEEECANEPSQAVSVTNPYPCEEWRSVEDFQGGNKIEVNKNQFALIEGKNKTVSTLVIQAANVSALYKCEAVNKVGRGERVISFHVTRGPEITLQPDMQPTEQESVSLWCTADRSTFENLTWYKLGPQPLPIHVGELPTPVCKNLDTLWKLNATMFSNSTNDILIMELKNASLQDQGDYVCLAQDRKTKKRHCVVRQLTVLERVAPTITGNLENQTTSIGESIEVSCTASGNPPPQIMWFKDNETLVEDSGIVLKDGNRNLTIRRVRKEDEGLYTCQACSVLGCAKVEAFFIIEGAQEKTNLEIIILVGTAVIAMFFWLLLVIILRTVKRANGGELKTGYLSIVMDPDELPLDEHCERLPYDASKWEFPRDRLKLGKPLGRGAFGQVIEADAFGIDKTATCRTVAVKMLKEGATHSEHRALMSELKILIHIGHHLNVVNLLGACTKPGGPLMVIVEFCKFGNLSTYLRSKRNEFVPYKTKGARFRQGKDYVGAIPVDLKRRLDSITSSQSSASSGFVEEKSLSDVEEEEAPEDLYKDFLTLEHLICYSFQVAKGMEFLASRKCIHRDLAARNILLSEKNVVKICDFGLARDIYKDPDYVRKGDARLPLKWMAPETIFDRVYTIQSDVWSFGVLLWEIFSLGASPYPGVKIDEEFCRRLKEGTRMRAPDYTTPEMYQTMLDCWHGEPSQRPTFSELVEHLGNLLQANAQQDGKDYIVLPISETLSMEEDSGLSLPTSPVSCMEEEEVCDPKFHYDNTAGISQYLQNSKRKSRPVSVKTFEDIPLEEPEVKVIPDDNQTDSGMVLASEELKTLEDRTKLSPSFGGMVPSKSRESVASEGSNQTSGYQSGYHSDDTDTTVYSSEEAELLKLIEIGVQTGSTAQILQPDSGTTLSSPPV

ACGAGCUACGACGUCUGGUGUAAUUUAUAAAGACACUGUGUAUAUCAACAA [anti-VEGFR2 DNA aptamer (Aptamer Science Cat. 186)]
Kd: 0.12 nM
